The source of these data is patent publication US20170128544A1.

In the assay the target is Bb, the active site-bearing fragment of Factor B (human) (UniProt P00751). As to the kind of experiment: surface plasmon resonance, decay-dissociation of the convertase. For orientation: Surface plasmon resonance follows binding to a sensor surface in real time, without labels.
Bb, the active site-bearing fragment of Factor B (human), sequence (P00751 260-764 limits assumed): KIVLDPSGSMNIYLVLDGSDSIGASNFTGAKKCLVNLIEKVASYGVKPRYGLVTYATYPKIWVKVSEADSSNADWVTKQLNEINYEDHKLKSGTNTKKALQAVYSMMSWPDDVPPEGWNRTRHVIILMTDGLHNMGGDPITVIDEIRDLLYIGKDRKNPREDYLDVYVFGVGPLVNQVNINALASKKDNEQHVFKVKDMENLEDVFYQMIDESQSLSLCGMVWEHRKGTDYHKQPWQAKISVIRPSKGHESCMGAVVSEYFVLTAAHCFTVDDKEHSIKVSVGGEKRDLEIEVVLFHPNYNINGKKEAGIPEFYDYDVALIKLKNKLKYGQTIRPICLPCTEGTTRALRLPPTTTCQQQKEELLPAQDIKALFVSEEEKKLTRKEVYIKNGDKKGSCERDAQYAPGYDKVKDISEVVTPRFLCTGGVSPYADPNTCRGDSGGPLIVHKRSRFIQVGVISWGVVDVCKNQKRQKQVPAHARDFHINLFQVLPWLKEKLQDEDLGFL

Take “cobra venom factor (CVF), natural (from UniProt Q91132 23-649; Q91132 733-984; Q91132 1264-1642)”: the Half-life at 25° C. (hrs) of the spontaneous decay-dissociation worked out at 19.2 h.

In turn, “humanized cobra venom factor (hCVF) protein HC3-1550b (from UniProt P01024 23-1549; Q91132 1529-1642)” yielded a Half-life at 25° C. (hrs) of the spontaneous decay-dissociation of 2 h.
